Results on two proteins are retold here after US20210213134.

This series has as its target insulin (fully disulfide-bonded heterodimeric insulin).

Positions count from the first letter of the chain named.

B1: Azido-C35STRX (C35STRX with azido-PEG linkers on Lys residues, reduced) (protein)
chain: MVKQIESKTAFQEALDAAGDKLVVVDFSATWCGPSKMIKPFFHSLSEKYSNVIFLEVDVDDCQDVASECEVKCMPTFQFFKKGQKVGEFSGANKEKLEATINELV
Turning to B1, the “activity in the insulin assay as compared to unreacted reduced C35STRX” value is reported as “the conjugated material retained about 33% of its activity in the insulin assay as compared to unreacted reduced C35STRX”.

B2: native human thioredoxin-1 (TRX) (protein)
chain: B1 chain with S35C
Turning to B2, the “insulin disulfide bond reduction activity” value is listed as “GSH is capable of restoring insulin disulfide bond reduction activity to oxidized TRX (FIG. 1)”.
